Measured values: paper PMC4769319, “Cohesin Releases DNA through Asymmetric ATPase-Driven Ring Opening” (Molecular Cell, 2016)
Positions count from the first letter of the chain named. Numbers in names are those of the source. One block for each binder: values may come before it.

Target: T1, full-length StrepII-Smc3 (wild-type) (S. cerevisiae, UniProt P47037 1-1230)
T1 construct: Smc3, S. cerevisiae, full length; source: Sf9 insect cells, expressed alone, purified (Strep-II tag purification, size-exclusion chromatography)
T1 sequence (looked up): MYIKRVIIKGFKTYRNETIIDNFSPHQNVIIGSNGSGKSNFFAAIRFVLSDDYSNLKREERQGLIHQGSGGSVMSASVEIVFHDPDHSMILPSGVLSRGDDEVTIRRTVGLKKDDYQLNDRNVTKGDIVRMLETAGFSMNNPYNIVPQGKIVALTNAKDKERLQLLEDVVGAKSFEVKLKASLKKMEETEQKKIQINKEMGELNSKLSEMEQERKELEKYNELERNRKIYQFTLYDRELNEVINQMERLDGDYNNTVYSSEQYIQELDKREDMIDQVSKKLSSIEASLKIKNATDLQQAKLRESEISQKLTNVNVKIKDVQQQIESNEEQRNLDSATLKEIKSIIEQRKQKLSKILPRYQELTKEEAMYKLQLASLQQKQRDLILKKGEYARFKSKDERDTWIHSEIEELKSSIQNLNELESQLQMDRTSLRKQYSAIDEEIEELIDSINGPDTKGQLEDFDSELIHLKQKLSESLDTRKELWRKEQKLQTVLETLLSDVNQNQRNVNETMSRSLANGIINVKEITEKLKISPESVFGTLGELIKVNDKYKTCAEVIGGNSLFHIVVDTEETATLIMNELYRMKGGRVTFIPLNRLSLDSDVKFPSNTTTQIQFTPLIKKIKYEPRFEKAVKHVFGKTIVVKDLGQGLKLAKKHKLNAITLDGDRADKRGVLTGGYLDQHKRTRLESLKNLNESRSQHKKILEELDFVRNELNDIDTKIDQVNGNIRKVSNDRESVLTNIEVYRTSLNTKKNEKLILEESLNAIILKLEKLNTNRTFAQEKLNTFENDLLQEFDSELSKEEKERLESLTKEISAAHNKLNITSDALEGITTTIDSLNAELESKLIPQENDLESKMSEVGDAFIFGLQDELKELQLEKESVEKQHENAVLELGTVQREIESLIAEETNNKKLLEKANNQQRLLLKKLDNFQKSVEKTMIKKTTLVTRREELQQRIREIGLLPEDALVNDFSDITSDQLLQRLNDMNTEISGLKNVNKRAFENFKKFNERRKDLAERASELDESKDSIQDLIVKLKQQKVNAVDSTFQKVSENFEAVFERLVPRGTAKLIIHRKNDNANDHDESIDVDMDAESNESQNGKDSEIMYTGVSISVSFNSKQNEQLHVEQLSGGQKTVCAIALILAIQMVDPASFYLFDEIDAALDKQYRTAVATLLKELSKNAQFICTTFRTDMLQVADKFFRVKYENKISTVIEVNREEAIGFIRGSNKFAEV
Assay: scanning force microscopy; full-length Smc1 co-incubated with full-length Smc3 in the presence of ATP, seeded on mica; V shapes and ring shapes counted as heterodimers
Details: both partners purified

- binding result: binds
B1: full-length HIS6-Smc1 (wild-type) (natural protein, S. cerevisiae, UniProt P32908 1-1225, looked up)
chain: MGRLVGLELSNFKSYRGVTKVGFGESNFTSIIGPNGSGKSNMMDAISFVLGVRSNHLRSNILKDLIYRGVLNDENSDDYDNEGAASSNPQSAYVKAFYQKGNKLVELMRIISRNGDTSYKIDGKTVSYKDYSIFLENENILIKAKNFLVFQGDVEQIAAQSPVELSRMFEEVSGSIQYKKEYEELKEKIEKLSKSATESIKNRRRIHGELKTYKEGINKNEEYRKQLDKKNELQKFQALWQLYHLEQQKEELTDKLSALNSEISSLKGKINNEMKSLQRSKSSFVKESAVISKQKSKLDYIFKDKEKLVSDLRLIKVPQQAAGKRISHIEKRIESLQKDLQRQKTYVERFETQLKVVTRSKEAFEEEIKQSARNYDKFKLNENDLKTYNCLHEKYLTEGGSILEEKIAVLNNDKREIQEELERFNKRADISKRRITEELSITGEKLDTQLNDLRVSLNEKNALHTERLHELKKLQSDIESANNQEYDLNFKLRETLVKIDDLSANQRETMKERKLRENIAMLKRFFPGVKGLVHDLCHPKKEKYGLAVSTILGKNFDSVIVENLTVAQECIAFLKKQRAGTASFIPLDTIETELPTLSLPDSQDYILSINAIDYEPEYEKAMQYVCGDSIICNTLNIAKDLKWKKGIRGKLVTIEGALIHKAGLMTGGISGDANNRWDKEEYQSLMSLKDKLLIQIDELSNGQRSNSIRAREVENSVSLLNSDIANLRTQVTQQKRSLDENRLEIKYHNDLIEKEIQPKITELKKKLDDLENTKDNLVKEKEALQNNIFKEFTSKIGFTIKEYENHSGELMRQQSKELQQLQKQILTVENKLQFETDRLSTTQRRYEKAQKDLENAQVEMKSLEEQEYAIEMKIGSIESKLEEHKNHLDELQKKFVTKQSELNSSEDILEDMNSNLQVLKRERDGIKEDIEKFDLERVTALKNCKISNINIPISSETTIDDLPISSTDNEAITISNSIDINYKGLPKKYKENNTDSARKELEQKIHEVEEILNELQPNARALERYDEAEGRFEVINNETEQLKAEEKKILNQFLKIKKKRKELFEKTFDYVSDHLDAIYRELTKNPNSNVELAGGNASLTIEDEDEPFNAGIKYHATPPLKRFKDMEYLSGGEKTVAALALLFAINSYQPSPFFVLDEVDAALDITNVQRIAAYIRRHRNPDLQFIVISLKNTMFEKSDALVGVYRQQQENSSKIITLDLSNYAE
notes: Smc1, S. cerevisiae, full length; Always co-expressed and co-purified with StrepII-Scc1-C; vector pFastBac NKI-LIC; details in Supplemental Experimental Procedures; not shown: His6, N-terminal, kept

- binding result: binds
B2: full-length HIS6-Smc1 D1164E (natural protein, S. cerevisiae, UniProt P32908 1-1225, looked up)
chain: B1 chain with D1164E
notes: Smc1, S. cerevisiae, full length, D-loop mutant; Co-purified with StrepII-Scc1-C; also called D-loop mutant D1164E; not shown: His6, N-terminal, kept

- binding result: binds
B3: full-length HIS6-Smc1 L1129V (natural protein, S. cerevisiae, UniProt P32908 1-1225, looked up)
chain: B1 chain with L1129V
notes: Smc1, S. cerevisiae, full length, Signature motif mutant; Co-purified with StrepII-Scc1-C; also called Signature motif mutant L1129V; not shown: His6, N-terminal, kept

- binding result: binds
B4: full-length HIS6-Smc1 K39I (natural protein, S. cerevisiae, UniProt P32908 1-1225, looked up)
chain: B1 chain with K39I
notes: Smc1, S. cerevisiae, full length, Walker A mutant; Co-purified with StrepII-Scc1-C; also called Walker A mutant Smc1 K39I; not shown: His6, N-terminal, kept
